Reference: US20240261333A1, “NOVEL TARGETS FOR ENHANCING ANTI-TUMOR IMMUNITY” (THE BROAD INSTITUTE, INC., priority 2021, published 2024)

T1: B3GNT2 (Homo sapiens, UniProt Q9NY97)
T1 construct: The respective ORFs of candidate genes [CD274 (NM_014143), MCL1 (NM_021960), JUNB (NM_002229), and B3GNT2 (NM_006577)] were synthesized; expressed in transfected cells; host or cells: A375 melanoma cells (lentiviral ORF overexpression)
T1 sequence (Q9NY97 1-397): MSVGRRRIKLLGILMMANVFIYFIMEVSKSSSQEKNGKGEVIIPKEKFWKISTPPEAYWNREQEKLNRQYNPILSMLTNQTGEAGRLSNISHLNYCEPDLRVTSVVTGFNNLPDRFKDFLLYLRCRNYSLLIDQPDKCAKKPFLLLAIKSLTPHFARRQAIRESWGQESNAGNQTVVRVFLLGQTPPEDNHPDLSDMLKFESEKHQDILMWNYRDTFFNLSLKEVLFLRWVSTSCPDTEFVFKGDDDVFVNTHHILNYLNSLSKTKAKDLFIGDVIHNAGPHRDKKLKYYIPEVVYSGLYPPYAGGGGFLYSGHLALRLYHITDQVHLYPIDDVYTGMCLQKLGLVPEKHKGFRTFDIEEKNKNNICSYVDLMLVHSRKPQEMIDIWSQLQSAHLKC


Biological target: T1, B3GNT2
Test: Co-IP of FLAG-tagged B3GNT2 followed by mass spectrometry
Assay type: cell-based
Parameters: C-term IgG / C-term flag: unit not given here
Conditions: mass spectrometry count, unit not given; for C-term flag / N-term FLAG: Co-IP with FLAG antibody; for C-term flag / C-term IgG: C-terminally FLAG-tagged B3GNT2; for N-term FLAG / N-term IgG: N-terminally FLAG-tagged B3GNT2; for C-term IgG / N-term IgG: Co-IP with IgG control antibody
Method in brief: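 Co-purifying proteins were identified by fractionated nano-LC–MS/MS on an Orbitrap Elite, run data-dependent. Beforehand, lysates in 1% Triton X-100/HEPES buffer were incubated overnight at 4° C with anti-FLAG or […] and pulled down on Protein A/G magnetic beads for 4 h. Duplicate biological replicates.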

C-term flag	N-term FLAG	C-term IgG	N-term IgG	Molecule
2	0	0	0	CCT7 (protein) MDKLIVDGRGKATISNDGATILKLLDVVHPAAKTLVDIAKSQDAEVGDGTTSVTLLAAEFLKQVKPYVEEGLHPQIIIRAFRTATQLAVNKIKEIAVTVKKADKVEQRKLLEKCAMTALSSKLISQQKAFFAKMVVDAVMMLDDLLQLKMIGIKKVQGGALEDSQLVAGVAFKKTFSYAGFEMQPKKYHNPKIALLNVELELKAEKDNAEIRVHTVEDYQAIVDAEWNILYDKLEKIHHSGAKVVLSKLPIGDVATQYFADRDMFCAGRVPEEDLKRTMMACGGSIQTSVNALSADVLGRCQVFEETQIGGERYNFFTGCPKAKTCTFILRGGAEQFMEETERSLHDAIMIVRRAIKNDSVVAGGGAIEMELSKYLRDYSRTIPGKQQLLIGAYAKALEIIPRQLCDNAGFDATNILNKLRARHAQGGTWYGVDINNEDIADNFEAFVWEPAMVRINALTAASEAACLIVSVDETIKNPRSTVDAPTAAGRGRGRGRPH
2	0	0	0	MAGT1 (protein) QRKKEMVLSEKVSQLMEWTNKRPVIRMNGDKFRRLVKAPPRNYSVIVMFTALQLHRQCVVCKQADEEFQILANSWRYSSAFTNRIFFAMVDFDEGSDVFQMLNMNSAPTFINFPAKGKPKRGDTYELQVRGFSAEQIARWIADRTDVNIRVIRPPNYAGPLMLGLLLAVIGGLVYLRRSNMEFLFNKTGWAFAALCFVLAMTSGQMWNHIRGPPYAHKNPHTGHVNYIHGSSQAQFVAETHIVLLFNGGVTLGMVLLCEAATSDMDIGKRKIMCVAGIGLVVLFFSWMLSIFRSKYHGYPYSFLMS
3	4	0	0	SPRR1A (protein) MNSQQQKQPCTPPPQPQQQQVKQPCQPPPQEPCIPKTKEPCHPKVPEPCHPKVPEPCQPKVPEPCQPKVPEPCPSTVTPAPAQQKTKQK
2	0	0	0	ARHGEF2 (protein, UniProt Q92974 1-986, looked up) Rho guanine nucleotide …: MSRIESLTRARIDRSRELASKTREKEKMKEAKDARYTNGHLFTTISVSGMTMCYACNKSITAKEALICPTCNVTIHNRCKDTLANCTKVKQKQQKAALLKNNTALQSVSLRSKTTIRERPSSAIYPSDSFRQSLLGSRRGRSSLSLAKSVSTTNIAGHFNDESPLGLRRILSQSTDSLNMRNRTLSVESLIDEAEVIYSELMSDFEMDEKDFAADSWSLAVDSSFLQQHKKEVMKQQDVIYELIQTELHHVRTLKIMTRLFRTGMLEELHLEPGVVQGLFPCVDELSDIHTRFLSQLLERRRQALCPGSTRNFVIHRLGDLLISQFSGPSAEQMCKTYSEFCSRHSKALKLYKELYARDKRFQQFIRKVTRPAVLKRHGVQECILLVTQRITKYPLLISRILQHSHGIEEERQDLTTALGLVKELLSNVDEGIYQLEKGARLQEIYNRMDPRAQTPVPGKGPFGREELLRRKLIHDGCLLWKTATGRFKDVLVLLMTDVLVFLQEKDQKYIFPTLDKPSVVSLQNLIVRDIANQEKGMFLISAAPPEMYEVHTASRDDRSTWIRVIQQSVRTCPSREDFPLIETEDEAYLRRIKMELQQKDRALVELLREKVGLFAEMTHFQAEEDGGSGMALPTLPRGLFRSESLESPRGERLLQDAIREVEGLKDLLVGPGVELLLTPREPALPLEPDSGGNTSPGVTANGEARTFNGSIELCRADSDSSQRDRNGNQLRSPQEEALQRLVNLYGLLHGLQAAVAQQDTLMEARFPEGPERREKLCRANSRDGEAGRAGAAPVAPEKQATELALLQRQHALLQEELRRCRRLGEERATEAGSLEARLRESEQARALLEREAEEARRQLAALGQTEPLPAEAPWARRPVDPRRRSLPAGDALYLSFNPPQPSRGTDRLDLPVTTRSVHRNFEDRERQELGSPEERLQDSSDPDTGSEEEGSSRLSPPHSPRDFTRMQDIPEETESRDGEAVASES
